According to patent US20170292963A1:

Biological target: Mouse BACE1 (beta amyloid precursor protein cleavage enzyme 1), native protein in mouse brain lysate or neurons (mouse) (UniProt P56818)
Assay: cell-based or functional assay

Chain of Mouse BACE1 (beta amyloid precursor protein cleavage enzyme 1), native protein in mouse brain lysate or neurons (mouse) (P56818 46-501 limits assumed): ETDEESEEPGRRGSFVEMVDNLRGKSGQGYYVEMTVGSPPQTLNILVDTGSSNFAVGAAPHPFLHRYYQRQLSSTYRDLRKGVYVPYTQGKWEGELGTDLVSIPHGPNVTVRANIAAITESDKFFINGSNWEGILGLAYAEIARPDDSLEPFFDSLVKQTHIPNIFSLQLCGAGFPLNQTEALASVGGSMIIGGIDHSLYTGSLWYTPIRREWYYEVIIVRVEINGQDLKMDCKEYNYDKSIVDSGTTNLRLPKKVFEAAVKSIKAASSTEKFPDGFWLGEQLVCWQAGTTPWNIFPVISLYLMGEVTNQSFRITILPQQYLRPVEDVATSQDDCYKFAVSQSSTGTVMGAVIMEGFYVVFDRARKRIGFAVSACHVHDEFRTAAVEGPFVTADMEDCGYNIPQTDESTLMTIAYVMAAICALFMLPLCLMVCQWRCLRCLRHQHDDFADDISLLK

- BACE1 internalized within 12 min at 37 C as percent of surface expression, NPTX1-/- neurons (surface biotinylation assay): 95%
- BACE1 internalized within 12 min at 37 C as percent of surface expression, WT neurons (surface biotinylation assay): 37.5%
- hAβ40 in media of hAPP/NPTX1-/- neurons compared to hAPP neurons (ELISA): 2 fold
Substance: Mouse NPTX1 (Neuronal Pentraxin 1), native protein in mouse brain lysate or neurons (from UniProt Q62443 23-432)
